In patent US20140234975 one finds activity (% targeted mutagenesis) data, which are given here for two substances.

What all share (experiment): cell_activity
Data set [1] concerns T1, SC_RAG single-chain meganuclease (engineered).
T1 sequence: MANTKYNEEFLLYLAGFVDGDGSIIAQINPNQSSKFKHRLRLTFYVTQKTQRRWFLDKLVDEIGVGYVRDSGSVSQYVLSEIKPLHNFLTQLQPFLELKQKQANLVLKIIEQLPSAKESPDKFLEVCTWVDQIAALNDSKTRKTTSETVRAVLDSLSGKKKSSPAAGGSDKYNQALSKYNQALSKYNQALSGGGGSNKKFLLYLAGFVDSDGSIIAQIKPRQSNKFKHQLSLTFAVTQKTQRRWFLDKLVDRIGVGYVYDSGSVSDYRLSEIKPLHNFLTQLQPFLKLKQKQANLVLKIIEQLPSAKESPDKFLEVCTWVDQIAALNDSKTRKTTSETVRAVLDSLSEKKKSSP
The note with it: 293H endogenous locus; 4.69 with TREX2, 5.41 with scTREX2.

Data set [2] has as its system T2, scTrex2-SC_RAG (engineered (human TREX2 fusion)).
T2 sequence: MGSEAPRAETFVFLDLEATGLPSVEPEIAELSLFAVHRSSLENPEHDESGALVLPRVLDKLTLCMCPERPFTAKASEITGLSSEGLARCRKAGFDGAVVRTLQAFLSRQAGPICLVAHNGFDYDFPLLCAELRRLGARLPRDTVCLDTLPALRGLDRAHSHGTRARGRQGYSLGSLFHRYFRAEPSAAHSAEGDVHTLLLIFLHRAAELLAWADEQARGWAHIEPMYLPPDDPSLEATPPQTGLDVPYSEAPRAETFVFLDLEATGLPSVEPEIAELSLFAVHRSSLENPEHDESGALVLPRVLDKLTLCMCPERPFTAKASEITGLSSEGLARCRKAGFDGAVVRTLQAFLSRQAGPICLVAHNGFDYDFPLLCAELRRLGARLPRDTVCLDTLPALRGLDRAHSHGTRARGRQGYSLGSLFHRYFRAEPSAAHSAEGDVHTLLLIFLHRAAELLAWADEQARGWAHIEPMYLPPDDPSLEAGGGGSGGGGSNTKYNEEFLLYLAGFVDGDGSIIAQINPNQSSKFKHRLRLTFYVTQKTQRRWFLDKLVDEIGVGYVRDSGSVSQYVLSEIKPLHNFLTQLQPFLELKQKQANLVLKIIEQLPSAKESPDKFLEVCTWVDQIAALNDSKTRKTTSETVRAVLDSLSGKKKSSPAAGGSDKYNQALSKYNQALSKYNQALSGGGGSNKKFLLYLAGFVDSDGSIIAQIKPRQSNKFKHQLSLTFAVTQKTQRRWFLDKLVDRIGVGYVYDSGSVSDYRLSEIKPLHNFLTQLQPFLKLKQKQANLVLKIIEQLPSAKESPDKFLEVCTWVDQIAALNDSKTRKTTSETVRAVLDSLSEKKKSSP
The note with it: 293H endogenous locus.

In data set [3] the test system is T3, SC_CAPNS1 single-chain meganuclease (engineered).
T3 sequence: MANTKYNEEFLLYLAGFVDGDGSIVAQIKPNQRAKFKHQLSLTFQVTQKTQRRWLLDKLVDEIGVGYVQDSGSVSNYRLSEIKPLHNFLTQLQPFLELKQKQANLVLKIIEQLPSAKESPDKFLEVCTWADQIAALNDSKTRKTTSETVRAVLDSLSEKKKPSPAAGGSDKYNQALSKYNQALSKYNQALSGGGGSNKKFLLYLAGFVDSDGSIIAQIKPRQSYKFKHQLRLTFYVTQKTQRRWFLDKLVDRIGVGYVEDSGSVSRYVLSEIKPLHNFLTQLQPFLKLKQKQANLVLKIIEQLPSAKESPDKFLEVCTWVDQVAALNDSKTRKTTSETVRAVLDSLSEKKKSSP
The note with it: 293H endogenous locus; 18.25 with TREX2, 25.4 with scTREX2.

Data set [4] concerns T4, scTrex2-SC_CAPNS1 (engineered (human TREX2 fusion)).
T4 sequence: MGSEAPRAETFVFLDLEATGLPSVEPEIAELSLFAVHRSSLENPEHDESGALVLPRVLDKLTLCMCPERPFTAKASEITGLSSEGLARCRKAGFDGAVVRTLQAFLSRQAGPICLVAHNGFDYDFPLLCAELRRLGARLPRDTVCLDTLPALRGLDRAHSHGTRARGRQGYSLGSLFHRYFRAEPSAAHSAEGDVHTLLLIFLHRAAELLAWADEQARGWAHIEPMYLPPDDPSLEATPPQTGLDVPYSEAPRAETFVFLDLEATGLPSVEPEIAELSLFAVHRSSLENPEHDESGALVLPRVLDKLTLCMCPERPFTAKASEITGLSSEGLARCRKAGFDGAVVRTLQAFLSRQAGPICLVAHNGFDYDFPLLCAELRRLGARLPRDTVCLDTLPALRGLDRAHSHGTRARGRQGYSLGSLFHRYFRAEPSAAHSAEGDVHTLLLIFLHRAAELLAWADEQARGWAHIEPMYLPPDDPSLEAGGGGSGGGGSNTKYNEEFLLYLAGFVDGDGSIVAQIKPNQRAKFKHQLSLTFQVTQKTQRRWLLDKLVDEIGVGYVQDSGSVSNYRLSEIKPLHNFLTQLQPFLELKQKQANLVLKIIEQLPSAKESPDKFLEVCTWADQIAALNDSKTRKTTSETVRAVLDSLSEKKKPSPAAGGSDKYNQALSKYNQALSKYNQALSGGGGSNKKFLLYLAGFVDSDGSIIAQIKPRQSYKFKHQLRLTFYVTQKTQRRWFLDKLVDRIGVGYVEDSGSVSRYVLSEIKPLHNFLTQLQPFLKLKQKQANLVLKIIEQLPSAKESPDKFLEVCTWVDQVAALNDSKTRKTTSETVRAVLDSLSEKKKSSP
The note with it: 293H endogenous locus.

Turning to RAG1 locus target, the activity (% targeted mutagenesis) is 1.4 in data set [1] and 8.42 in data set [2].
Turning to CAPNS1 locus meganuclease target, the activity (% targeted mutagenesis) was determined as 15.2 in data set [3] and 35.8 in data set [4].
